Source: article PMC12302650

Assays:
[1] = target: GDP-tubulin (biotinylated α/β-tubulin heterodimer with GDP-bound β-tubulin) (UniProt Q71U36)
[2] = target: GDP-tubulin (biotinylated α/β-tubulin heterodimer with GDP-bound β-tubulin) (UniProt Q71U36); test: pull-down; supernatant depletion at equilibrium, same assay as for GTP-tubulin but with bead-bound GDP-tubulin; BuGZ construct (or mEGFP control) in solution; fit with Equation S2 for wild-type BuGZ
[3] = target: GTP-tubulin (biotinylated α/β-tubulin heterodimer with GTP-bound β-tubulin) (UniProt Q71U36); test: pull-down; supernatant depletion at equilibrium; varying concentrations of biotinylated GTP-tubulin on streptavidin-coated magnetic beads; BuGZ construct (or mEGFP control) in solution, BuGZ 1.19 μM; 4 °C; nocodazole present; depletion from the supernatant measured by immunoblotting

BuGZ-ΔGLEBS (from UniProt Q7ZXV8 1-452) (natural protein)
GTP α-32P incorporation into GDP-tubulin at equilibrium, increase relative to controls [1]: 57.4%
Kd [2]: 54.2 nM
Kd [3]: 408 nM
